The DeepSol protein solubility set

assay: soluble on expression in E. coli; label from the status in PepcDB or PDB records

| Sequence | soluble on expression in E. coli |
| --- | --- |
| SLRRAAKAEAQAWLLTERLAQAEERHRLLEDQSATQIELIKAQAAQSANAIAEQLIKRADENAKSRERLAEARLEAQLKPVAETLAKFEAQVTAVEKARAEETGGLKAQITALLEASTATQAEARKLSAALRRGAGVQGRWGEQTLRNVLEAAGLNSRFDFQEQFSVDSEEGRRRPDVKVTLPGGGVFVIDAKCSLNAFLEAQDATDEVLREAAMARHAQSVRTHMQGLSSKAYWDQFAGEGSPDFVAMFVPGDGFLAAALDRLPELMAEAMDRRVVLVTPTTLFALCKAVAYGWRAEDQAKNAARIVEVGRELYKRVSVMGAHAGAMGKALESAVGKYNQFVGSLESQVLTQARRFEDLSVDHEGKEIPEPPMVDQAVRPLTKLKAVGQSPTLTLGNDTPT | soluble |
| MGSDKIHHHHHHMSFFPGPDPLAGDKPACDAIEHLIIPRTSDIGGLQVRRALPTAKRRLVGPFIFFDRMGPALLRAGQAIDVRPHPHIGLSTVTYLFDGEIKHRDSLGTEMVIRPGDVNLMTAGRGIVHSERSPENQRGHERSLSGLQTWLALPDAMEEIDPVFAHTEERMLPHLADGGVRARVVIGQFEGAASPVSTFTDTIYVDLMIEPGKSAPFAANWEERALYILSGEAIIAGDHFDNNQLLVFRPGDEITITAGPAGCHVMLFGGAALGSPRHIWWNFVSSSKERIDKAKEEWRTGRFDIVPGDEEEFIPLPAS | not soluble |
| QLHLSLPSDTQASYSSTQRKQAEIMAEGFGPGINSPFLVVADAHSVDENAEILEPLIRAQNPAPGERKQAAANAAYQYIIQKYSVTPDVKHVQIVGLSKDGLAAQLLLTPESSPEDDVTKQLIDALLIKQDEVNNATGIRSGITGLIPVQQDVTNR | not soluble |
| MTESDVDSGSKKYLSNHKGIFIHVTLEELKRYHQLTPEQKRLIRAIVKTLIHNPQLLDESSYLYRLLASKAISQFVCPLCLMPFSSSVSLKQHIRYTEHTKVCPVCKKEFTSTDSALDHVCKKHNICVS | soluble |
| MLLVSVISCLLISVLAKDAVTPRVGSQCTKNQVVRKLTVYEDGALEAECGPVPCGEVGKRCIDDQTSCRAETDVFSGMRWAPNGESILLRCCTMHAKNKIYVGTDVVAAGSFYEGGEVAEKDLYGDKGGAEYDFVANARTEQGGVRVWVYRMICAKGEKPVDFDPITTTSAPRVIKTTPAPTTTPTVEEEAEEAEQLEEDQPNDNEAEIVESNDEEEVVEEETEEEEEVTTTPAPKPFNPLRYRPPHFPRQSTGIRRA | not soluble |
| MGSDKIHHHHHHMSIDNVSGTSSNTGNVNGSKRAAGSGATETGQSVKGSSNLGKDEFLKLLVAQLKNQDPMSPQQNGEFIAQLAQFSTVEGVQSLNKSMESILSNYQSSQALQASSLVGRKVIVATDKSVVDTKDTFKASLNLPVSSSNVWVNVYDDKGTVVNRINLGQQAAGSVSFMWDGKDSSGNIMPPGTYKFEAQTSIDGKTYGLQTYLPANVDSVTLGQNGGELMLNLAGLGSIALSKVQIIGQ | not soluble |
| MGSDKIHHHHHHMALEDKDLRSIQEVRNLIESANKAQKELAAMSQQQIDTIVKAIADAGYDAREKLAKMAHEETGFGIWQDKVIKNVFASKHVYNYIKDMKTIGMLKEDNEKKVMEVAVPLGVVAGLIPSTNPTSTVIYKTLISIKAGNSIVFSPHPNALKAILETVRIISEAAEKAGCPKGAISCMTVPTIQGTDQLMKHKDTAVILATGGSAMVKAAYSSGTPAIGVGPGNGPAFIERSANIPRAVKHILDSKTFDNGTICASEQSVVVERVNKEAVIAEFRKQGAHFLSDAEAVQLGKFILRPNGSMNPAIVGKSVQHIANLAGLTVPADARVLIAEETKVGAKIPYSREKLAPILAFYTAETWQEACELSMDILYHEGAGHTLIIHSEDKEIIREFALKKPVSRLLVNTPGALGGIGATTNLVPALTLGCGAVGGSSSSDNIGPENLFNIRRIATGVLELEDIRKEENQATPELSVDADALIQSLVEKVLAELK | not soluble |
| NHVRRVQELSKFFAEEMGLDEDLVHKIYLYAPLHDIGKIKVPKEILNKKGKLTAEEWEIMKKHTIWGGELLSGRKELEVARNIALYHHESYDGTGYPFGLKDDEIPIEAQIVKIVDVYDAL | not soluble |
| MTATKQTAQVTAVADGTVVTPKGFQAAGVHAGLRYSKNDLGVILCDVPASAAAVYTQSHFQAAPLKVTQASLAVEQKLQAVIVNSACANACTGEQGLKDAYEMRELCAKQFGLALHHVAVASTGVIGEYLPMEKIRAGIEKLVPGATMADAEAFQTAILTTDTVMKRACYQTTVDGKTVTVGGAAKGSGMIHPNMATMLAFITTDANVSSPVLHAALRSITDVSFNQITVDGDTSTNDMVVVMASGLAGNDELTPDHPDWENFYEALRKTCEDLAKQIAKDGEGATKLIEVRVRGAKTDEEAKKIAKQIVGSNLVKTAVYGADANWGRIIGAIGYSDAEVNPDNVDVAIGPIVMLKGSEPQPFSEEEATAYLQQETVVIEVDLHLGDGFGVAWGCDLTYDYVKINASYRT | not soluble |
| MMSIAQVRSAGSAGNFYTDKDNYYVLGSMGERWAGRGAEQLGLQGSVDKDVFTRLLEGRLPDGADLSRMQDGSNRHRPGYDLTFSAPKSVSMMAMLGGDKRLIDAHNQAVDFAVRQVEALASTRVMTDGQSETVLTGNLVMALFNHDTSRDQEPQLHTHAVVANVTQHNGEWKTLSSDKVGKTGFIENVYANQIAFGRLYREKLKEQVEALGYETEVVGKHGMWEMPGVPVEAFSGRSQTIREAVGEDASLKSRDVAALDTRKSKQHVDPEIKMAEWMQTLKETGFDIRAYRDAADQRADS | soluble |
| MGSDKIHHHHHHMKIVVAKNIGFCFGVERAIRTVEELLDEGKKVVTDGEIVHNKQVMEQLTKKGLKVSSEMTDGEVFVVRAHGIPKDRLEELKKIFPEVVDLTCPIVSQLFKTAQRYAKERKVIVFGKEDHPEMVALRGYAPAIVTKVPFKLEEKKVVFLSQTTSSLEEYKEFVAAMIRMNEFEEAVFLNTICPVTVNREREVEELSKICDLSIVVGGKHSSNTGKLFRIASKHSKTIWIESPDELPADVVKYGTVCVFSGTSTPNSLIENVVRKLKEMEGKRDGTI | not soluble |
| MLENRLYKRSDFWKLFSRKYKLTKTIEHMMIDSIDIQENDRILEIGIGNGTVFKSITKKLKKGSLKSIDPSKRKVRQISRANRKNMGNGEVFHGYPEDIPFDDRTFNKVFSLHTVQSCTDIRLALREIYRVLQIDGRFYISIDTNTGEKEKTYIQLLKDQHFRDLSVIRRASCLCIVAVKLEHHHHHH | soluble |
| MAQDWNDKIESAQKMLPLIAQLHNNNNVVVSVFGRLLINVTDIDIVKAHRYSRLATETELSPADTLPVLEALHSINVGPASIDLGRLVELHRSKGGDLTQFLTEELSNVIDTRPA | not soluble |
| MPAKTGQEYMERLKRAKSSVYIHGEKVEDVTVHPAFRNVVRSMAALYDRQYEKPEKMLYRSPTTGQLVGMTFIQPTTIDELIARREATQEWARMSAGMMGRSPDYLNAEVMAMGVANDLFAEDDPMFAENAKNYYEYARENDISLTHTLIHPQMNRAKALHEQNDADVPLHLVERRKDGIIVSGIRLLATQGGITDEILVFPSTVKKSTAGEDPYALAFAIPNNTPGVKFICREAFDYGRSSWDHPLASRFEEGDAIVSFENVFVPWERVFVCGNSSICNRTFRETNAVIHMSHQVVAKNIVKTEFLLGVTLCLIEAIGIGEFQHVKDKGAEIMLVLETMKSHLYRAEHNAKRDRWGTMTPDFAALDAARNWYPRIYPRLSEIIRILGASGLMAIPTEADFHNEEIGEIVSRAMQGATVDGYERVQLFRLAWDLTMSAFGARQTHYEYYFFGDPVRMGMAYFDGYEKEPYKQFVREFLRGAKSVFIPSDNKH | not soluble |
| MSLSDNDLQRRILDAVDAGFDAQLATTRDFVAIPSTRGAEGPCQDMIGDLLRQRGYEVDDWHIDLDDLKDLRGYGPIEHDFSKARTVVGTYRPSTNAGRSLILQGHCDVVPAGPLEMWDTPPFSPVIKQGRMYGRGACDMKSGTIGALYALDAIKAAGLRPTGRIHFQSVIEEESTGVGALSTLQRGYRADACFIPEPTGGKMVRSQVGVIWFRLKVRGYPVHVATAGTGSNAITAAYHLIDALGKLEEEWNRRAASDPHFKTLAHPINFNPGIIKGGDWASSVPAWCDVDCRIAILPGWSVADHQAEILACVSAAARDHRFLSNNPPQVEWSGFLSEGYELKNAAEPEAAFGKAYQAVYGSEVEDLVFTALTDTRFYGLNYNIPSLCFGASGEAMHGFNEYIDLESLRQSTKATALFIAEWCGVEPAEGHHHHHH | soluble |
| MHHHHHHSSGVDLGTENLYFQSMNGPEDLPKSYDYDLIIIGGGSGGLAAAKEAAQYGKKVMVLDFVTPTPLGTRWGLGGTCVNVGCIPKKLMHQAALLGQALQDSRNYGWKVEETVKHDWDRMIEAVQNHIGSLNWGYRVALREKKVVYENAYGQFIGPHRIKATNNKGKEKIYSAERFLIATGERPRYLGIPGDKEYCISSDDLFSLPYCPGKTLVVGASYVALECAGFLAGIGLDVTVMVRSILLRGFDQDMANKIGEHMEEHGIKFIRQFVPIKVEQIEAGTPGRLRVVAQSTNSEEIIEGEYNTVMLAIGRDACTRKIGLETVGVKINEKTGKIPVTDEEQTNVPYIYAIGDILEDKVELTPVAIQAGRLLAQRLYAGSTVKCDYENVPTTVFTPLEYGACGLSEEKAVEKFGEENIEVYHSYFWPLEWTIPSRDNNKCYAKIICNTKDNERVVGFHVLGPNAGEVTQGFAAALKCGLTKKQLDSTIGIHPVCAEVFTTLSVTKRSGASILQAGCGG | soluble |
| MTEITHRTKTRPVKVGNLTIGGNNEVVVQSMTTTKTHDVEATVAEIKRLEEAGCQVVRVACPDMRAAEAIPAIKKQISIPLVVDIHFDYKLALKAIEGGADKIRINPGNIGKRHKVEAVVKAAKEKGIPIRIGVNAGSLEKRILDKYGYPTADGMVESALHHIKILEDLDFHDIIVSMKASDVNLAIEAYEKAAKAFDYPLHLGITESGTLFAGTVKSAAGLGAILNMGIGNTVRVSLSADPVEEVKVARELLKSFGLASNAATLISCPTCGRIEIDLISIANEMEEYISKIRAPIKVAVLGCAVNGPGEAREADIGIAGARGEGLLFRKGEIVRKVPEETMVEELKKEIDKIAEEYFAKQKELEKALEHHHHHH | soluble |
| VGLGNLKTYGGLRQGSQSYNIDRLKKYLYYGDGTYDDLVNTLLNEAMNDQLESFASFYRGKKLYELPRGWPEIPAKRQR | not soluble |
| MGSDKIHHHHHHMITRIEAYKYRCFNTLDLALEQQHVFAGSNGSGKTTLLDIPALFGDLLNMSDINDAFFKPTNGRERARAESAKEVVHQLRGEYFILALEVSLPPSIIEELLRGASDAWQSKFQKSELRPDTARYEISFRINQDKFQVTEEHLTLFPNNELRPEHGMGLIGVDDFRRSAPWFKVLSRSLGTKVKYQAEYQAGKSSILEFGLRDNQLALAALPADHDLYPAALWLQEFLIQGSHCYEPQWPAMRLAASPRDKHAFKADGSSLPWQVHALQQSDPEGLNEWLELVQMALPSIAKIVAKQRIDDSFCYLEVTYSNGMVVPSSGLSHGTLHILALTIIPYLQNAPKIITLEEPENGIHPKAIDAVLEALKLTSDTQLWLSTHSPVVLANTEVEQIITMRFNQDGATEVLKGHEHPRLKTWKGEVDLGTLFAAGVLE | not soluble |
| MEFYSQSRFSNWVNKIAETELDEDNPETFAVFDQMLEDVIIACLSIIRAVKEREIRKADAVKEVEKILGLIPNHDFGDELKNELFQFTLESIKAVLLSFRLYFEGKISKKSFEALLKDALKKEQSGDYEGSLNAVAQMGAKVIKGEQLPELDIPEDSAVISWIDGIDAISSVLELSKIDAPTE | not soluble |
| MPKYYEDKPQGGACAGLKEDLGACLLQSDCVVQEGKSPRQCLKEGYCNSLKYAFFECKRSVLDNRARFRGRKGY | not soluble |
